From patent US12269880B2, “LAG3 binding peptides” (Leidos, Inc., priority 2019, dated 2025) come the findings set out here.

One assay deals with T1, LAG3/MHC-II interaction (Homo sapiens, UniProt P18627).
T1 construct: purchased Cisbio US Inc
T1 sequence (P18627 23-450 limits assumed): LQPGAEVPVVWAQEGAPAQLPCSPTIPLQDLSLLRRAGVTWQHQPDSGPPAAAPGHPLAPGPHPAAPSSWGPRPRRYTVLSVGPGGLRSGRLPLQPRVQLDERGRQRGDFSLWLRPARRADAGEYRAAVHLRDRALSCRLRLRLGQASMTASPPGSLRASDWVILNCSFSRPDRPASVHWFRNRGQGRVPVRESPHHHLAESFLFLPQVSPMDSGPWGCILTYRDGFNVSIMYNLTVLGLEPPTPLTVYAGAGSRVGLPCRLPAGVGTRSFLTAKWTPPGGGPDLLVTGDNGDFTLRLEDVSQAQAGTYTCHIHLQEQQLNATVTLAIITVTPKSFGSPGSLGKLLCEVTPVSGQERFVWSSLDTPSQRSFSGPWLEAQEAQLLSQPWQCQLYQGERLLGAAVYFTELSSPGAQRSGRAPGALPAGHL
In words: HTRF LAG3/MHC-II binding assay (Cisbio). From the text: FIG. 2 is a graph showing the results of a homogeneous time-resolved fluorescence (HTRF) assay for peptide LAG3-11. Reference Ab-LAG3 is an anti-LAG3 antibody. OVA, the ovalbumin (OVA) peptide (ISQAVHAAHAEINEAGR, SEQ ID NO:8). “HTRF ratio” is the emission at 665 nm (acceptor)/emission at 620 nm (donor) multiplied by a factor or 10^4.
A homogeneous time-resolved fluorescence (HTRF) LAG3/MHC-II binding assay (Cisbio US Inc.) was used to measure the interaction between MHC-II and LAG3 in the presence of peptides. In this assay, the interaction between Tag1-LAG3 and Tag2-MHC-II is detected by using anti-Tag1-Terbium (HTRF donor) and anti-Tag2-XL665 (HTRF acceptor). When the donor and acceptor antibodies are brought into close proximity due to LAG3 and MHC-II binding, excitation of the donor antibody triggers fluorescent resonance energy transfer (FRET) towards the acceptor antibody, which in turn emits specifically at 665 nm. This specific signal is directly proportional to the extent of LAG3/MHC-II interaction. Thus, an agent that blocks the interaction between LAG3 and MHC-II will cause a reduction in HTRF ratio.
An anti-human LAG3 antibody (Novoprotein #GMP-A092, Lot 0331158, 500 nM) was tested in the assay at an eleven-point, serially diluted semi-log dose response curve starting at 100 nM and served as a positive control. The ovalbumin peptide was used as a negative control. Peptides were reconstituted at a concentration of 20 mM in […] and tested at an eleven-point dose response curve starting at 100 µM followed by 4-fold dilutions. […]

In assay [1] the target is T2, soluble recombinant human LAG3 (Homo sapiens, UniProt P18627).
T2 construct: soluble recombinant human LAG3
T2 sequence (P18627 23-450 limits assumed): T1 sequence (P18627 23-450 limits assumed)
Briefly: Clonal phage ELISA after phage display bio-panning. It counts as binding. Particulars: for Clonal Phase ELISA uncoated signal: uncoated (background). An excerpt: The TriCo-20™, TriCo-16™, Ph.D.-12™, and Ph.D. C7™ Phage Display Peptide Libraries (Creative Biolabs, 45-1 Ramsey Road, Shirley, NY 11967) were screened by performing several rounds of bio-panning to identify binders of soluble recombinant human LAG3.

The target of another assay is T3, human LAG3/FGL1 (Homo sapiens, UniProt P18627).
T3 construct: purchased BPS Bioscience
T3 sequence (P18627 23-450 limits assumed): T1 sequence (P18627 23-450 limits assumed)
In words: Human LAG3/FGL1 TR-FRET binding assay (BPS Bioscience). On the procedure: The peptides were tested using a human LAG3/FGL1 TR-FRET binding assay (BPS Bioscience) carried out according to the manufacturer's instructions.
Peptide stocks of LAG3-11, LAG3-42, LAG3-48, LAG3-51, LAG3-54, LAG3-56, LAG3-60 and OVA were prepared at 1 mM followed by a 1:5 dilution in plate reactions. LAG3-11 and OVA were tested at 200, 50, 13, 3, 0.8, 0.2, 0.05, and 0.01 μM. The other peptides were tested at 200, 50, 13, and 3 μM. A neutralizing anti-human LAG3 antibody (BPS Bioscience Cat. #71219) was used as a positive control.
Reaction mixes were incubated 1 hr at RT before development. After development, plate was read in a Tecan M1000 TR-FRET instrument. Percent activity was calculated as follows: % Activity=100×[(sample−minimum)/(maximum−minimum)]

Setting [2] is: LOG [Compound] M tested for peptide −4, single replicates.
[3] abbreviates: LOG [Compound] M tested for peptide −4.60206, single replicates.
Where [4] appears, read: LOG [Compound] M tested for peptide −5.20412, single replicates.
The mark [5] stands for this setting: LOG [Compound] M tested for peptide −5.80618, single replicates.
The mark [6] stands for this setting: LOG [Compound] M tested for peptide −6.40824.
Where [7] appears, read: LOG [Compound] M tested for peptide −7.0103, single replicates.
[8] abbreviates: LOG [Compound] M tested for peptide −7.61236, single replicates.
Setting [9] is: LOG [Compound] M tested for peptide −8.21442, single replicates.
Where [10] appears, read: LOG [Compound] M tested for peptide −8.81648, single replicates.
Where [11] appears, read: LOG [Compound] M tested for peptide −9.41854, single replicates.
Setting [12] is: LOG [Compound] M tested for peptide −10.0206.
[13] abbreviates: LOG [Compound] M tested for peptide −10.6227.

Where “and” joins values, the source holds several entries; their conditions need not be identical. Equal entries are not always repeated.

DWNFQQWDWKKHNHLDSHVV (LAG3-42 peptide): the HTRF ratio was 7234 and 7037 and 7142 with LAG3/MHC-II interaction (setting [2]); 8389 and 8097 and 8045 with LAG3/MHC-II interaction (setting [3]); 8629 and 8765 and 8733 with LAG3/MHC-II interaction (setting [4]); 9281 and 8905 and 8572 with LAG3/MHC-II interaction (setting [5]); 9189 and 8945 and 8784 with LAG3/MHC-II interaction (setting [6]); 9432 and 8649 and 9072 in the assay with LAG3/MHC-II interaction (setting [7]). For the same sequence, the HTRF ratio in the assay with LAG3/MHC-II interaction (setting [8]) is 9209 and 8787 and 9109; in the assay with LAG3/MHC-II interaction (setting [9]), 9407 and 8205 and 9247; in the assay with LAG3/MHC-II interaction (setting [10]), 9579 and 9134 and 8703; in the assay with LAG3/MHC-II interaction (setting [11]), 9137 and 8550 and 8958; with LAG3/MHC-II interaction (setting [12]), 8860 and 8937 and 8907; in the assay with LAG3/MHC-II interaction (setting [13]), 9016 and 8914 and 9210. Also, the “Clonal Phase ELISA coated signal” value in assay [1] turned out to be 0.378. In assay [1], the “Clonal Phase ELISA uncoated signal” value came to 0.084.

Turning to “ISQAVHAAHAEINEAGR (listed as Gallus gallus) [OVA peptide, reference compound]”, the HTRF ratio was 7154 and 8492 and 8909 with LAG3/MHC-II interaction (setting [2]); 8449 and 8472 and 8683 with LAG3/MHC-II interaction (setting [3]); 9015 and 8616 and 8579 with LAG3/MHC-II interaction (setting [4]); 9180 and 8833 and 9374 with LAG3/MHC-II interaction (setting [5]); 9189 and 8634 and 9280 with LAG3/MHC-II interaction (setting [6]); 8380 and 8654 and 8970 with LAG3/MHC-II interaction (setting [7]). For the same sequence, the HTRF ratio in the assay with LAG3/MHC-II interaction (setting [8]) was 9015 and 8776 and 8568; in the assay with LAG3/MHC-II interaction (setting [9]), 9219 and 8624 and 8987; in the assay with LAG3/MHC-II interaction (setting [10]), 8684 and 8724 and 8639; in the assay with LAG3/MHC-II interaction (setting [11]), 8625 and 8396 and 8788; in the assay with LAG3/MHC-II interaction (setting [12]), 8356 and 8986 and 8457; with LAG3/MHC-II interaction (setting [13]) it was 8633 and 9086 and 8892.

Consider HESGSVPHPWQFFTHYVS (LAG3-60 peptide), for which the HTRF ratio with LAG3/MHC-II interaction (setting [2]) was 2986 and 3079; in the assay with LAG3/MHC-II interaction (setting [3]), 5934 and 5959 and 5991; with LAG3/MHC-II interaction (setting [4]) it was 8233 and 7988 and 7918; in the assay with LAG3/MHC-II interaction (setting [5]) it was 8525 and 8398 and 8342; in the assay with LAG3/MHC-II interaction (setting [6]) it was 8614 and 8929 and 9290; in the assay with LAG3/MHC-II interaction (setting [7]), 9142 and 8745 and 8892. The HTRF ratio with LAG3/MHC-II interaction (setting [8]) was 8987 and 8983 and 9320; in the assay with LAG3/MHC-II interaction (setting [9]), 9275 and 8931 and 9366; with LAG3/MHC-II interaction (setting [10]) it was 9059 and 9248 and 8887; with LAG3/MHC-II interaction (setting [11]) it was 8772 and 8594 and 9169; in the assay with LAG3/MHC-II interaction (setting [12]), 8924 and 8349 and 8904; in the assay with LAG3/MHC-II interaction (setting [13]) it was 8795 and 9240 and 9350. In addition, the “Clonal Phase ELISA coated signal” value in assay [1] came out at 0.330. Moreover, the “Clonal Phase ELISA uncoated signal” value in assay [1] was 0.091.

Regarding HIQNWSYWLNQDMMNQQVWKS (LAG3-56 peptide), the “inhibition of the interaction between human LAG3 and FGL1” value with human LAG3/FGL1 was “inhibit the interaction between human LAG3 and FGL1”. Moreover, the HTRF ratio was 4194 and 4083 and 4373 with LAG3/MHC-II interaction (setting [2]); 6880 and 7058 and 7142 in the assay with LAG3/MHC-II interaction (setting [3]); 8218 and 8349 and 8414 with LAG3/MHC-II interaction (setting [4]); 8791 and 8658 and 8464 in the assay with LAG3/MHC-II interaction (setting [5]); 9040 and 9185 and 9082 with LAG3/MHC-II interaction (setting [6]); 8147 and 9275 and 9111 in the assay with LAG3/MHC-II interaction (setting [7]). The HTRF ratio was 8935 and 9303 and 9093 with LAG3/MHC-II interaction (setting [8]); 8765 and 9591 and 9178 with LAG3/MHC-II interaction (setting [9]); 8856 (2×) and 8869 with LAG3/MHC-II interaction (setting [10]); 9050 and 9029 and 9176 with LAG3/MHC-II interaction (setting [11]); 9022 and 8887 and 8540 in the assay with LAG3/MHC-II interaction (setting [12]); 8885 and 9204 and 8617 with LAG3/MHC-II interaction (setting [13]). For the same sequence, the “Clonal Phase ELISA coated signal” value in assay [1] is recorded as 0.529. Moreover, the “Clonal Phase ELISA uncoated signal” value in assay [1] was found to be 0.101.
